Assay results as given in patent US20100279943A1 (RAMAT AT TEL AVIV UNIVERSITY, published 2010).
Values belong to the binder of their own block, whether it stands above or below them.

Target: T1, G93A-hSOD1-CFP (human, UniProt P00441 2-154, G93A)
T1 construct: Transiently expressed in NSC-34 cells; FRET donor; also called G93A SOD1-CFP; pECFP-G93A-hSOD1; not shown: CFP (from pECFP plasmid) attached to the C-terminus of SOD1
Test: FACS sorting of cells without G93A SOD1-CFP/MDH1-YFP FRET after transfection of the myc-tagged MDH1 peptide library

T1 sequence (P00441 2-154 G94A): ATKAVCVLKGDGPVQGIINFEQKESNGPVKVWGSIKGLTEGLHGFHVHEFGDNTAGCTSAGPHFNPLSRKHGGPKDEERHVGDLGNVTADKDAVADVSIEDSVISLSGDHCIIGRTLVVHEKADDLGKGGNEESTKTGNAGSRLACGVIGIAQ

binding result: binds
B1: myc-tagged peptide 14-27 of cytMDH (peptide)
peptide: GQIAHSLLYSIGNG
notes: Expressed from a plasmid inside NSC-34 cells; also called myc-tagged 14-27 peptide; not shown: human myc tag in frame with the peptide

binding result: binds
B2: myc-tagged peptide 217-239 of cytMDH (peptide)
peptide: SWLKGEFITTVQQRGAAVIKARK
notes: Expressed from a plasmid inside NSC-34 cells; not shown: human myc tag in frame with the peptide
